Measured values: PMC5832925, “Hypoxia-inducible lipid droplet-associated protein inhibits adipose triglyceride lipase” (Journal of Lipid Research, 2018)
Each block holds one binder with its values, some of them ahead of it.

Experiments:
[1] = biological target: T1, sf-GFP-mATGL288 (mouse ATGL residues 1-288 fused to superfolder GFP) (mouse) (UniProt Q8BJ56)
T1 sequence: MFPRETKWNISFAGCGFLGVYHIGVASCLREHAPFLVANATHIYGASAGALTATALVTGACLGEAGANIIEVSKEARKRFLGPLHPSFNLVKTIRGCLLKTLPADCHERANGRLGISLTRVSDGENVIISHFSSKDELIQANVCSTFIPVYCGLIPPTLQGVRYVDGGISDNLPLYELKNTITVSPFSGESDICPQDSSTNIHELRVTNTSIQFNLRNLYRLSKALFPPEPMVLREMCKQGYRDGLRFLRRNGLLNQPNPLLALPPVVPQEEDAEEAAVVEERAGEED

[2] = biological target: T2, sf-GFP-mATGL288 (mouse ATGL residues 1-288 fused to superfolder GFP) (mouse, UniProt Q8BJ56 1-288); experiment: cell-based or functional assay
T2 sequence (looked up): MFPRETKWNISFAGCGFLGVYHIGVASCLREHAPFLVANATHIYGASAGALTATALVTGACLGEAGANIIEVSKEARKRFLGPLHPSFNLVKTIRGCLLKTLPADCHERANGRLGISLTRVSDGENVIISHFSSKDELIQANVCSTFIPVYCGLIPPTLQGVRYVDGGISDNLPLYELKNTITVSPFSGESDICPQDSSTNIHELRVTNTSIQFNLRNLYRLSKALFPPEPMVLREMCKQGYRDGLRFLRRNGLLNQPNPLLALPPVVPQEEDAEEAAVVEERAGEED

[3] = biological target: T2, sf-GFP-mATGL288 (mouse ATGL residues …); experiment: MST; Monolith NT.115; smt3-tagged hHILPDA 1.1 μM to 487 μM titrated against 0.01 μM sf-GFP-mATGL_288; 20 mM phosphate, 300 mM NaCl, 1 mM EDTA, 1 mM DTT pH 7.0, 1% BSA; room temperature; triplicate; conditions: both partners purified

IC50 of inhibition of TGH activity of mATGL288 lysate (without sf-GFP) with CGI-58; HILPDA 1-24 44 nM to 44 μM [1]: 5.4 µM
B1: hHILPDA_1-24 (6XHis-smt3-TEV fusion) (domain or fragment)
chain: MKHVLNLYLLGVVLTLLSIFVRVM

IC50 of inhibition of TGH activity of mATGL288 lysate (without sf-GFP) with CGI-58; HILPDA 1-28 44 nM to 44 μM [1]: 5 µM
B2: hHILPDA_1-28 (6XHis-smt3-TEV fusion) (domain or fragment)
chain: MKHVLNLYLLGVVLTLLSIFVRVMESLE

IC50 of inhibition of TGH activity of mATGL288 lysate (without sf-GFP) with CGI-58; HILPDA 44 nM to 44 μM [2]: 1.9 µM
Kd [3]: 247 µM
B3: 6XHis-smt3-TEV-hHILPDA (human hypoxia-inducible lipid droplet-associated protein, full length) (natural protein, UniProt Q9Y5L2 1-63, looked up)
chain: MKHVLNLYLLGVVLTLLSIFVRVMESLEGLLESPSPGTSWTTRSQLANTEPTKGLPDHPSRSM
notes: human HILPDA (Hig-2), 63 amino acids, construct hHILPDA_1-63 in a modified pSUMO vector with 6XHis tag and TEV site; The fusion protein (22 kDa) was used without removal of smt3; a TEV site lies between smt3 and HILPDA; also called smt3-HILPDA fusion protein; source: E. coli BL21-CodonPlus (DE3)-RIL, purified (HisTrap FF, Superdex 200); not shown: smt3, N-terminal, kept
